The target in one experiment is T1, hiR2-FL-H505R-T7 (human) (UniProt Q6PJF5).
T1 sequence: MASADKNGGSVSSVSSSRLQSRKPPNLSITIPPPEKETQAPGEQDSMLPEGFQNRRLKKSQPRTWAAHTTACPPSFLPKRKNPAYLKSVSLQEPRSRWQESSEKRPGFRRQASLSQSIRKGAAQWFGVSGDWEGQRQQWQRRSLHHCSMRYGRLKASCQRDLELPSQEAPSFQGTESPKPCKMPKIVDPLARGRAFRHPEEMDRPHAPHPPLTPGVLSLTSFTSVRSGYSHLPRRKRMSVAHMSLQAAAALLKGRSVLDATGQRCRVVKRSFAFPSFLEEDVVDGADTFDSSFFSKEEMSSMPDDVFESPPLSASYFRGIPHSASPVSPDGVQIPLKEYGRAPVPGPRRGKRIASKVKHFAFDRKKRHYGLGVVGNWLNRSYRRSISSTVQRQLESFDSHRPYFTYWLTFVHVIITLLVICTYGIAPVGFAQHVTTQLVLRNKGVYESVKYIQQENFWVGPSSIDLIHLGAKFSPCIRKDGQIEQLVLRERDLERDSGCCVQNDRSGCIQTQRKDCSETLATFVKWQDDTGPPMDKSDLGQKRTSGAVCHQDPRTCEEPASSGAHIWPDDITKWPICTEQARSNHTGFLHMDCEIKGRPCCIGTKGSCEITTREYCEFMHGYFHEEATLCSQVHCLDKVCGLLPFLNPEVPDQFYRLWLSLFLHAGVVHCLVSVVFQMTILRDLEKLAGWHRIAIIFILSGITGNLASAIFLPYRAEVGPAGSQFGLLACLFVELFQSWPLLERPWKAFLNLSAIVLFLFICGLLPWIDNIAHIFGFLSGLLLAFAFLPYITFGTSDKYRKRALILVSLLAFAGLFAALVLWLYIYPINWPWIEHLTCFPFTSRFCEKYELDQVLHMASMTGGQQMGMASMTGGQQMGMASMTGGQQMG
Description: FACS, MEF-DKO cells, 3 µg/ml. In general terms: Flow cytometry measures light scatter and fluorescence of single cells or particles in a stream.

For another experiment, the target named is T2, hiR2-FL-K536A-T7 (human) (UniProt Q6PJF5).
T2 sequence: T1 sequence with R505H, K536A
The experiment is described as follows: FACS on MEF-DKO cells expressing the variant, 3 µg/ml antibody.

Substitutions are numbered along the chain they refer to.

B1: antibody 48 (antibody, V domains shown)
VH: QVQLQQSGTELVRPGTSVKVSCKASGYAFTNYLIEWVKQRPGQGLEWIGVINPGSGFTKYNEKFKGKATLTADKSSSTVYMHLSSLTSEDSAVYFCARGLYRAMDYWGQGTSVTVSS
VL: DIQMTQSPASQSASLGESVTITCLASQTIATWLAWYQQKPGKSPQLLIYGATTLADGVPSRFSGGGSGTKFSFKISSLQAEDFVSYYCQQLYSTPYTFGGGTKLEIK
Molecule B1 gave a loss of binding vs wild type with hiR2-FL-H505R-T7 (human) above 60%.

B2: antibody 22 (antibody, V domains shown)
VH: QVTLKESGPGILQPSQTLSLTCSFSGFSLSTFGMGVGWIRQPSGKGLEWLAHIWWDDEKYYNSALKSRLTISKATSKNQVFLKIANVDTADTATYYCARISNYGSNYWYFNVWGTGTTVTVSS
VL: QVVLTQSPALMSASPGEKVTMTCSAGSSVSYMYWYQQKPGSSPRVLIYDTSNLASGVPARFTGSGSGTSYSLTISRMEAEDAATYYCQQWNSYPLTFGAGTKLELK
In the case of B2, the loss of binding vs wild type with hiR2-FL-K536A-T7 (human) is above 95%.

B3: antibody 42 (antibody, V domains shown)
VH: B2 VH with F24L, M34R, S63P, A74D, K83R, S101Q, N111D
VL: LIVLTQSPAIMSASPGEKVTMTCGATSRISYMFWYQQKPGSSPRVLIYDTSNLASGVPVRFSGSGSGTSYSLTISRVEAEDVATYYCQQWNSYPLTFGAGTKLELK
On to B3, for which the loss of binding vs wild type with hiR2-FL-K536A-T7 (human) is above 95%.

B4: antibody 44 (antibody, V domains shown)
VH: B2 VH with G44E, E58D, S63P, A74D, V80I, A85T, D91E, A98S, S101G, N111D
VL: B2 VL with V2I, L10V, S24T, G26S, S30Y, K38T, V45L, A59V, T62S, S92T
Turning to B4, in the experiment with hiR2-FL-K536A-T7 (human), the loss of binding vs wild type is above 95%.

B5: antibody 34 (antibody, V domains shown)
VH: QVTLKESGPGILQPSQTLSLTCSFSGFSLSTFSLGVGWIRQSSGKGLEWLAHIWWDDEKYYNPALKSRLTISKDTSKNQVFLKIANVDAADTATYYCARAYYSKSYYALDYWGQGTSVTVSS
VL: DIQMTQSPSSLSASLGERVSLTCRASQEISGYLSWLQQKPDGTIKRLIYAASTLDSGVPKRFSGSRSGSDYSLAISSLESEDFADYYCLQYANFPFTFGSGTKLEIK
As to B5, the loss of binding vs wild type in the experiment with hiR2-FL-K536A-T7 (human) is above 95%.
